{"source": "patent US20210277066A1", "about": "(BRIGHAM AND WOMEN S HOSPITAL, published 2021)", "molecular_target": "T1, mouse LY6A (mouse, UniProt P05533 27-112)", "T1 construct": "whole, on cells; Over-expressed on HEK293T cells", "T1 sequence": "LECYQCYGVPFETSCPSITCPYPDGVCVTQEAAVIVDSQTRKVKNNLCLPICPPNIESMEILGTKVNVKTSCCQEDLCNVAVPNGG", "test": "AAV binding to LY6A-transfected HEK293T cells on ice; bound viral genomes counted by qPCR", "data": [{"binder": "AAV.CPP.16 (other, Tested as a whole recombinant AAV particle (rAAV-mCherry); also called Bip2.1 insert TVSALK) MAADGYLPDWLEDNLSEGIREWWALKPGAPQPKANQQHQDNARGLVLPGYKYLGPGNGLDKGEPVNAADAAALEHDKAYDQQLKAGDNPYLKYNHADAEFQERLKEDTSFGGNLGRAVFQAKKRLLEPLGLVEEAAKTAPGKKRPVEQSPQEPDSSAGIGKSGAQPAKKRLNFGQTGDTESVPDPQPIGEPPAAPSGVGSLTMASGGGAPVADNNEGADGVGSSSGNWHCDSQWLGDRVITTSTRTWALPTYNNHLYKQISNSTSGGSSNDNAYFGYSTPWGYFDFNRFHCHFSPRDWQRLINNNWGFRPKRLNFKLFNIQVKEVTDNNGVKTIANNLTSTVQVFTDSDYQLPYVLGSAHEGCLPPFPADVFMIPQYGYLTLNDGSQAVGRSSFYCLEYFPSQMLRTGNNFQFSYEFENVPFHSSYAHSQSLDRLMNPLIDQYLYYLSKTINGSGQNQQTLKFSVAGPSNMAVQGRNYIPGPSYRQQRVSTTVTQNNNSEFAWPGASSWALNGRNSLMNPGPAMASHKEGEDRFFPLSGSLIFGKQGTGRDNVDADKVMITNEEEIKTTNPVATESYGQVATNHQSAQTVSALKAQAQTGWVQNQGILPGMVWQDRDVYLQGPIWAKIPHTDGNFHPSPLMGGFGMKHPPPQILIKNTPVPADPPTAFNKDKLNSFITQYSTGQVSVEIEWELQKENSKRWNPEIQYTSNYYKSNNVEFAVNTEGVYSEPRPIGTRYLTRNL", "values": [{"measurement": "binding result", "value": "no binding (tested: MOI of 10000)"}]}, {"binder": "AAV.CPP.21 (other, Tested as a whole recombinant AAV particle (rAAV-mCherry); also called Bip2.6 insert TVSALFK) MAADGYLPDWLEDNLSEGIREWWALKPGAPQPKANQQHQDNARGLVLPGYKYLGPGNGLDKGEPVNAADAAALEHDKAYDQQLKAGDNPYLKYNHADAEFQERLKEDTSFGGNLGRAVFQAKKRLLEPLGLVEEAAKTAPGKKRPVEQSPQEPDSSAGIGKSGAQPAKKRLNFGQTGDTESVPDPQPIGEPPAAPSGVGSLTMASGGGAPVADNNEGADGVGSSSGNWHCDSQWLGDRVITTSTRTWALPTYNNHLYKQISNSTSGGSSNDNAYFGYSTPWGYFDFNRFHCHFSPRDWQRLINNNWGFRPKRLNFKLFNIQVKEVTDNNGVKTIANNLTSTVQVFTDSDYQLPYVLGSAHEGCLPPFPADVFMIPQYGYLTLNDGSQAVGRSSFYCLEYFPSQMLRTGNNFQFSYEFENVPFHSSYAHSQSLDRLMNPLIDQYLYYLSKTINGSGQNQQTLKFSVAGPSNMAVQGRNYIPGPSYRQQRVSTTVTQNNNSEFAWPGASSWALNGRNSLMNPGPAMASHKEGEDRFFPLSGSLIFGKQGTGRDNVDADKVMITNEEEIKTTNPVATESYGQVATNHQSAQTVSALFKAQAQTGWVQNQGILPGMVWQDRDVYLQGPIWAKIPHTDGNFHPSPLMGGFGMKHPPPQILIKNTPVPADPPTAFNKDKLNSFITQYSTGQVSVEIEWELQKENSKRWNPEIQYTSNYYKSNNVEFAVNTEGVYSEPRPIGTRYLTRNL", "values": [{"measurement": "binding result", "value": "no binding (tested: MOI of 10000)"}]}]}
